{"source": "patent US11497796B2", "about": "“Agents directed against a cis RGMa/neogenin interaction or lipid rafts and use of the same in methods of treatment” (UNIVERSITY HEALTH NETWORK, priority 2013, dated 2022)", "molecules": {"B1": {"name": "N-RGMc (SEQ ID NO:9): N-RGMc from mouse (protein)", "chain": "MGQSPSPRSPHGSPPTLSTLTLLLLLCGQAHSQCKILRCNAEYVSSTLSLRGGGSPDTPRGGGRGGLASGGLCRALRSYALCTRRTARTCRGDLAFHSAVHGIEDLMIQHNCSRQGPTAPPPARGPALPGAGPAPLTPDPCDYEARFSRLHGRAPGFLHCASFGD", "modifications": "Mouse N-RGMc", "notes": "N-RGMc from mouse"}, "B2": {"name": "Noggin: BMP-chelator, Accession No. AAA83259 (SEQ ID NO:5) (protein, listed as Homo sapiens)", "chain": "MERCPSLGVTLYALVVVLGLRATPAGGQHYLHIRPAPSDNLPLVDLIEHPDPIFDPKEKDLNETLLRSLLGGHYDPGFMATSPPEDRPGGGGGAAGGAEDLAELDQLLRQRPSGAMPSEIKGLEFSEGLAQGKKQRLSKKLRRKLQMWLWSQTFCPVLYAWNDLGSRFWPRYVKVGSCFSKRSCSVPEGMVCKPSKSVHLTVLRWRCQRRGGQRCGWIPIQYPIISECKCSC", "modifications": "Noggin - Accession No. AAA83259"}, "B3": {"name": "N-RGMa (SEQ ID NO:10): N-RGMa from mouse (protein)", "chain": "MQPPRERLVVTGRAGWMGMGRGAGRSALGLWPTLAFLLCSFPAAISPCKILKCNSEFWSATSSGSHAPASDDVPEFCAALRTYALCTRRTARTCRGDLAYHSAVHGIEDLMSQHNCSKDGPTSQPRVRTLPPAGDSQERSDSPEICHYEKSFHKHSAAPNYT", "modifications": "Mouse N-RGMa", "notes": "N-RGMa from mouse"}, "B4": {"name": "C-RGMa: C-terminal RGMa isoform of the CNS (protein)", "chain": "PHLRTFTDTFQTCKVQGAWPLIDNNYLNVQVTNTPVLPGSSATATSKLTIIFKSFQECVEQKVYQAEMDELPAAFADGSKNGGDKHGANSLKITEKVSGQHIEIQAKYIGTTIVVRQVGRYLTFAVRMPEEVVNAVEDRDSQGLYLCLRGCPLNQQIDFQTFRLAQAAEGRARRKGPSLPAPPEAFTYESATAKCREKLPVEDLYFQSCVFDLLTTGDVNFMLAAYYAFEDVKMLHSNKDKLHLYERTRALAPGN"}}, "key": {"[1]": {"tested_on": "temporal retinal explants (axonal outgrowth)", "test": "Retinal explants outgrowth assay", "format": "cell-based, chick", "description": "Poly-L-Lysine (SIGMA; 10 μg/ml) coated glass coverslips were treated with Laminin (Invitrogen; 10 μg/ml) and RGMa proteins (5 μg/ml) and incubated for 3 hours at room temperature. Temporal retinal explants were cultured on protein-coated surfaces for 18 hours. To disrupt the lipid rafts, explants were pretreated with 10 mM methyl-β-cyclodextrin (MβCD) for 12 minutes or 2 U/ml cholesterol oxidase (CO) for 1 hour at 37° C. Explants were then fixed with 4% paraformaldehyde (PFA) and stained with Alexa488-phalloidin. Fiber length was quantified using Image Pro 5.0. For immunolocalization, explants were treated with Cholera Toxin B-FITC (C1655; Sigma; 10 mg/mL) and patched, fixed and stained with Neogenin antibody. Retinal ganglion cells (RGCs) were electroporated with RGMa-His and cultured for 18 hours. The cells were fixed and stained with Neogenin and His-tag antibodies.\nRetinal explants outgrowth assay. Poly-L-Lysine (PLL; SIGMA; 10 μg/ml) coated glass coverslips were treated with Laminin (10 μg/ml; Invitrogen) and RGMa proteins (5 μg) and incubated for 3 hrs at room temperature. PLL treated coverslips were coated with myelin overnight (6 μg/cm2), followed by coating with Laminin. Temporal retinal explants were cultured on either myelin or protein-coated surfaces in DMEM F-12 media (2% chick serum, 10% FBS) for 18 h. To disrupt rafts, explants were pre-treated with 10 mM MβCD for 12 min or 2 U/ml CO for 1 h at 37° C., washed, and cultured on protein coated coverslips. Explants were then fixed with 4% PFA and stained with Alexa488-fluor-phalloidin (1:50; Molecular Probes). Fiber length was quantified using Image Pro 5.0.\nStatistical analysis of retinal outgrowth assays was performed using Student's two-tail t-test using Excel (Microsoft). Results were expressed as the mean±SEM (n=at least 3 independent experiments; 2 duplicates per independent experiment, >10 explants per duplicate)."}, "[2]": {"tested_on": "retinal ganglion cells (RGCs)", "test": "Retinal organotypic cultures (whole mounts), propidium iodide cell death", "format": "cell-based", "settings": "perturbing lipid rafts", "description": "(A) HEK293 cells that stably express RGMa (FIG. 11) were transfected with empty plasmid (Ctrl) or Neogenin (Neo). Neogenin induced cell death (arrows) when compared to control. (B) Quantification of cell death in Neogenin-transfected cells that were incubated in BSA (Neo+Ctrl), 4Ig (1 μg/ml), N-Raft (1 μg/ml), Noggin (100 nM), or MβCD (10 mM). […] Data were average±SEM (n=3 independent experiments), *p<0.0001. (C) Representative images and (D) Quantification of cell death in chick E5 tecta electroporated with GFP- and a Neogenin-expression plasmid and then injected with N-RGMa50-99 (Ctrl; 1 μg/ml), 4Ig (1 μg/ml), or N-Raft (1 μg/ml) and subjected to TUNEL assay. […] Data were an average±SEM from 3 different tecta/conditions (*p<0.001). Bar, 100 μm. (E) Representative images and (F) Quantification of retinal whole mounts incubated for 4 days with control peptide (1 μg/ml), 4Ig (1 μg/ml), N-Raft (1 μg/ml), or MβCD (10 mM) and dead cells were stained with Propidium Iodide (PI). Images from 9 whole mounts per condition from 3 independent experiments were taken at the same intensities and the fluorescence measured using ImageJ. […] Bar, 500 μm. (G) Fluorescence micrographs of flat-mounted retinas depicting Fluorogold-labeled retinal ganglion cells (RGCs) in injured retinas at 14 days following axotomy. Control retinas (Ctrl) had few surviving RGCs. 4Ig, N-raft or MβCD increased cell survival. Bar, 200 μm. (H) Representations of the retinal areas selected in our analyses. […] Data were average±SEM (n=6 eyes), *p<0.01.\nFor this study, retinal organotypic cultures were used, in which axotomy of retinal ganglion cells (RGCs) deprived the cells of tropic factors and induced apoptosis. Cell death was detected using propidium iodide (PI) and all images were taken at the same intensity with the RGC-layer in focus. Cell death was gauged by measuring the relative PI intensity of whole mounts."}, "4Ig-domain of Neogenin": {"biological_target": "T1, 4Ig-domain of Neogenin (Gallus gallus, UniProt Q90610)", "T1 construct": "made in house", "T1 sequence (Q90610 1-383)": "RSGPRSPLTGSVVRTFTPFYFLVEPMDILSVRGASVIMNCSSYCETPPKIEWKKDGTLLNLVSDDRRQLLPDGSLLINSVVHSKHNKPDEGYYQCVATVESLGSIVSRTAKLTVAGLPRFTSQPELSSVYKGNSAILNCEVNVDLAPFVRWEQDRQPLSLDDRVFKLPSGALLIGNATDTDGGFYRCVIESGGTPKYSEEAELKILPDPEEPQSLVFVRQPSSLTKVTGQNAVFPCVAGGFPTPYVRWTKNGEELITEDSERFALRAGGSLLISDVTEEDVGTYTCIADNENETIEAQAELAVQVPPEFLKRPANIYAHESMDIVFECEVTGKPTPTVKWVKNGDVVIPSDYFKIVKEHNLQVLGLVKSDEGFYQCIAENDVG", "test": "ELISA / AP binding assay of RGMa peptides to Neogenin domains", "settings": "AP-tagged fragments 1.0 μg/mL on coated His-tagged 4Ig", "text": "Specifically, the 4Ig-domain and 6FNIII-domain of Neogenin were each fused to alkaline phosphatase (AP). The 4Ig-domain and 6FNIII-domain of Neogenin were found in the extracellular portion of Neogenin. Accession No. AAC59662 (SEQ ID NO:1) was the amino acid sequence of Neogenin. The 4Ig-domain was amino acids 1 to 383 of Accession No. AAC59662 (SEQ ID NO:1). The 6FNIII-domain was amino acids 429 to 1036 of Accession No. AAC59662 (SEQ ID NO:1).\nThe binding of these fusions to various RGMa peptides were analyzed in an ELISA assay (FIG. 2A).\nTo determine if distinct N-terminal regions of RGMa bound the 4Ig- and 6FNIII-domains of Neogenin, peptides were generated that spanned the N-terminal region of RGMa. The amino acid sequence of RGMa was Accession No. NP_989868.1 (SEQ ID NO:6). These peptides were a peptide spanning amino acids 28-73 of RGMa (also referred to herein as “N-Raft”) and a peptide spanning amino acids 77-113 of RGMa (also referred to herein as “N-inh”). […] In a complementary experiment, in which the N-Raft and N-inh peptides of RGMa were fused with AP instead of the 4Ig- and 6FNIII-domains of Neogenin, N-Raft bound to the 4Ig-domain and not the 6FNIII-domain while N-inh bound to the 6FNIII-domain and not the 4Ig-domain (FIG. 9). Additionally, N-inh and N-Raft coated beads pulled down 6FNIII-domain and 4Ig-domain, respectively, which was consistent with the ELISA results described above (FIG. 2B).\nThe assay was conducted in a 96-well microtiter plate (Corning Incorporated). The wells were coated with 100 μl (10 μg/mL) of Poly-L-Lysine at 4° C. overnight. Wells were then washed three times with 100 μl of PB ST (+0.02% Tween).\n50 μl (2.5 μg/mL) of His-tagged: Full-length Neogenin; the 4Ig-domain of Neogenin; and 6FNIII-domain of Neogenin were coated onto each well for 1 hour at 37° C. Following three washes of 100 μl PBST, each well was then blocked with 300 μl of 3% BSA in PBST for 1 hour at 37° C.\n50 μl (1.0 μg/mL) AP-tagged: N-RGMa (28-73); N-RGMa (28-54); N-RGMa (40-62); N-RGMa (54-73); N-RGMa (54-62) in 1% BSA+PBST was then added to each well and incubated at 37° C. for 1 hour. Each well was washed thoroughly three times with 100 μl PBST followed by subsequent equilibration of each well with Alkaline Phosphatase (AP) developing buffer (100 mM NaHCO3, 1 mM MgCl2). The reaction was developed using AP developing buffer supplemented with, p-nitrophenyl phosphate (pNPP) (Sigma-Aldrich) and allowed to develop until color development. The reaction was stopped with the addition of 50 μl (0.1M) NaOH. The absorbance of each reaction was measured using a microplate autoreader (BIO-TEK Instruments Inc.) at 405 nanometers (nm) wavelength."}, "[3]": {"tested_on": "Neogenin association with lipid rafts", "test": "Lipid raft fractionation of injected chick brain/tecta", "format": "in vivo", "settings": "injected into chick brain/optic tectum one day before fractionation", "description": "Injected chick E8 tecta (4Ig, 2 mg/mL; N-raft, 1 mg/mL; methyl-β-cyclodextrin (10 mM)) or transfected cells (Neogenin and RGMa) were collected 24 hours later, lysed and placed at the bottom of a sucrose density gradient (0.9-0.8-0.75-0.7-0.6-0.5-0.4-0.2 M) and centrifuged at 38,000 rpm for 16 hours in SW 60 rotor (Beckman Instruments Inc.).\nProteins (4Ig, 2 mg/ml; N-Raft, 1 mg/mL; RGMaΔ, 5 mg/ml; methyl-β-cyclodextrin (10 mM)) were injected in chick E8 optic tectum and tecta were collected 24 hrs later. HEK cells were transfected with Neogenin and different RGMa constructs and collected 48 hrs later. For treatment with RGMaΔ, Neogenin transfected cells were treated with RGMaΔ (2 mg/ml) and BMP-2 (100 nM) and further incubated for 1 hr at 37° C. Tecta (3 tecta for each set of experiment) and/or cells were solubilized in chilled buffer (25 mM Tris-HCl, pH 7.4, 150 mM NaCl, 5 mM EDTA and protease inhibitor cocktail) and passed through G25 and G30 needles, respectively, and centrifuged at 800 g for 10 min at 4° C. Cold Triton X-100 was added to the post nuclear supernatant to a final concentration of 1% and incubated on ice for 1 hour. 2× volume of 2M sucrose was added and sample placed at the bottom of a sucrose density gradient (0.9-0.8-0.75-0.7-0.6-0.5-0.4-0.2 M) and centrifuged at 38,000 rpm for 16 hours in SW 60 rotor (Beckman Instruments Inc.). 400 μl fractions were collected from top (top numbered 1 and next eight fractions numbered consequently) and stored at −80° C.\nAs such, it was examined if overexpressing recombinant 4Ig and N-Raft competed with the endogenous 4Ig and N-Raft domains to displace Neogenin from the lipid raft fractions to the non-lipid raft fractions. Specifically, N-Raft, 4Ig-domain, or a control peptide, which was amino acid residues 50-99 of RGMa (also referred to herein as “N-RGMa^50-99”), was injected into the optic tectum at E8. The tecta were collected a day later for fractionation-analyses."}}, "note": "No end group written: not given here.", "data": [{"molecule": "cholesterol oxidase [CO]", "values": [{"measurement": "axonal outgrowth on RGMa proteins after lipid raft disruption", "setting": "[1]; 10 mM MβCD or 2 U/ml of CO", "result": "restored to control values"}, {"measurement": "enhancement of cell survival vs. control", "setting": "[2]", "result": "about 50%"}]}, {"molecule": "N-RGMa (40-62aa): amino acids 40-62 of RGMa (SEQ ID NO:4), AP-tagged (WAATSGSHHLGAEETPEFCTALR; also: AP-tagged)", "values": [{"measurement": "binding to the 4Ig-domain of Neogenin", "setting": "4Ig-domain of Neogenin", "result": "bound specifically"}]}, {"molecule": "N-RGMa (54-73aa): amino acids 54 to 73 of RGMa (SEQ ID NO:3), AP-tagged (TPEFCTALRAYAHCTRRTAR; cysteine pairing not given here; also: AP-tagged)", "values": [{"measurement": "binding to the 4Ig-domain of Neogenin", "setting": "4Ig-domain of Neogenin", "result": "bound specifically"}]}, {"molecule": "B1", "values": [{"measurement": "binding to the 4Ig-domain of Neogenin", "setting": "4Ig-domain of Neogenin", "result": "demonstrated binding"}]}, {"molecule": "B2", "values": [{"measurement": "outgrowth in retinal explants (E8) exposed to N-RGMa, C-RGMa or RGMaΔ", "setting": "[1]; in presence of Noggin", "result": "restored outgrowth"}, {"measurement": "axonal outgrowth, agent alone", "setting": "[1]; no RGMa protein", "result": "unaffected"}, {"measurement": "Neogenin localization in membrane fractions", "setting": "[3]", "result": "not present in the lipid rafts"}]}, {"molecule": "B3", "values": [{"measurement": "binding to the 4Ig-domain of Neogenin", "setting": "4Ig-domain of Neogenin", "result": "demonstrated binding"}]}, {"molecule": "B4", "values": [{"measurement": "effect on axonal outgrowth when provided as growth substrate (in trans)", "setting": "[1]; protein as substrate", "result": "blocked axon growth"}]}]}
